Measurements as given in patent US20120184713A1, “Compositions and Methods for Modulation of Bone Density and Biomineralization” (priority 2011, published 2012).

Test system: OPN-ASARM peptide
Test: Kinase assays of FAM20C mutant proteins
Type: biochemical, human
Conditions: recombinant mouse FAM20C:V5 mutants; for the mutants OPN-ASARM peptide (1) as substrate, FIG. 8f
Description: Site-specific mutagenesis was performed by PCR essentially as described^26, by using primers […] and […] (SEQ ID NO: 25) (FAM20C^GG), […] (SEQ ID NO: 26) and […] (FAM20C^D453G) (SEQ ID NO: 27), […] (SEQ ID NO: 28) and […] (FAM20C^G374R) (SEQ ID NO: 29), […] and […] (FAM20C^G374E) (SEQ ID NO: 30), […] (SEQ ID NO: 31) and […] (FAM20C^E383R) (SEQ ID NO: 32), […] (SEQ ID NO: 33) and […] (FAM20C^R544W) (SEQ ID NO: 34), […] (SEQ ID NO: 35) and […] (FAM20C^1241N)(SEQ ID NO: 36), […] (SEQ ID NO: 37) and […] (FAM20C^G261R) (SEQ ID NO: 38), […] (SEQ ID NO: 39) and […] (FAM20C^D446N) (SEQ ID NO:40). All mutations were confirmed by DNA sequencing.
FAM20C kinase assay with peptides substrates were performed in 10 μl reactions, with 500 μM ATP, including 3 μCi (0.05 μM) of [gamma-^32P]ATP (6000 Ci/mmol, PerkinElmer), 50 mM Tris (pH 7.0), 10 mM MnCl2, 0.1% BSA, purified FAM20C:V5 and peptides. Casein Kinase I (500 units, NEB) was used as a control kinase. mutant versions (5 ng, […]), and peptides (2.5 μg, 1 nmol as a standard condition. 250 ng, […] in FAM20C mutants). Reactions were stopped by adding 1.5 μl 0.1N—HCl, and one half of the reaction volume was pipetted on to P81 phospho-cellulose filter paper^27. The filter papers were washed with 0.5% phosphoric acid and subjected to liquid scintillation counting.

B1: D453G: FAM20C:V5 with a mutation in a conserved Asp residue (protein, UniProt Q5MJS3 88-579, looked up, variant D453G)
Extracellular …: DFSSDPASNLTSHSLEKLPSAAEPVDHAPRGQEPRSPPPRDPAHRPLLRDPGPRPRVPPPGPSGDGSLLAKLFEHPLYQGAVPPLTEDDVLFNVNSDIRFNPKAAENPDWPHEGAEGAEFLPTGEAAVNLYPNWLKFHIGINRYELYSRHNPAIDALLRDLGSQKITSVAMKSGGTQLKLIMTFQNYGQALFKPMKQTREQETPPDFFYFSDYERHNAEIAAFHLDRILDFRRVPPVAGRMINMTKEIRDVTRDKKLWRTFFVSPANNICFYGECSYYCSTEHALCGRPDQIEGSLAAFLPDLSLAKRKTWRNPWRRSYHKRKKAEWEVDPDYCEEVKQTPPYDSGHRILDIMDMTVFDFLMGNMGRHHYETFEKFGNETFIIHLDNGRGFGKYSHDELSILAPLHQCCRIRRSTYLRLQLLAKEEHKLSLLMAESLQHDKVAPVLYQLHLEALDRRLRIVLQAVRDCVEKDGLSSVVEDDLATEHRASTER
modifications: V5 tag
notes: FAM20C:V5 with a mutation in a conserved Asp residue
kinase activity of FAM20C mutant isoform: abolished catalytic activity

B2: 1241N: recombinant mouse FAM20C:V5 carrying Raine syndrome patient mutation 1241N (protein, UniProt Q5MJS3 88-579, looked up, variant I241N)
Extracellular …: DFSSDPASNLTSHSLEKLPSAAEPVDHAPRGQEPRSPPPRDPAHRPLLRDPGPRPRVPPPGPSGDGSLLAKLFEHPLYQGAVPPLTEDDVLFNVNSDIRFNPKAAENPDWPHEGAEGAEFLPTGEAAVNLYPNWLKFHIGINRYELYSRHNPANDALLRDLGSQKITSVAMKSGGTQLKLIMTFQNYGQALFKPMKQTREQETPPDFFYFSDYERHNAEIAAFHLDRILDFRRVPPVAGRMINMTKEIRDVTRDKKLWRTFFVSPANNICFYGECSYYCSTEHALCGRPDQIEGSLAAFLPDLSLAKRKTWRNPWRRSYHKRKKAEWEVDPDYCEEVKQTPPYDSGHRILDIMDMTVFDFLMGNMDRHHYETFEKFGNETFIIHLDNGRGFGKYSHDELSILAPLHQCCRIRRSTYLRLQLLAKEEHKLSLLMAESLQHDKVAPVLYQLHLEALDRRLRIVLQAVRDCVEKDGLSSVVEDDLATEHRASTER
modifications: V5 tag
notes: recombinant mouse FAM20C:V5 carrying Raine syndrome patient mutation 1241N
kinase activity of FAM20C mutant isoform: no detectable kinase activity

B3: G261R: recombinant mouse FAM20C:V5 carrying Raine syndrome patient mutation G261R (protein, UniProt Q5MJS3 88-579, looked up, variant G261R)
Extracellular …: DFSSDPASNLTSHSLEKLPSAAEPVDHAPRGQEPRSPPPRDPAHRPLLRDPGPRPRVPPPGPSGDGSLLAKLFEHPLYQGAVPPLTEDDVLFNVNSDIRFNPKAAENPDWPHEGAEGAEFLPTGEAAVNLYPNWLKFHIGINRYELYSRHNPAIDALLRDLGSQKITSVAMKSRGTQLKLIMTFQNYGQALFKPMKQTREQETPPDFFYFSDYERHNAEIAAFHLDRILDFRRVPPVAGRMINMTKEIRDVTRDKKLWRTFFVSPANNICFYGECSYYCSTEHALCGRPDQIEGSLAAFLPDLSLAKRKTWRNPWRRSYHKRKKAEWEVDPDYCEEVKQTPPYDSGHRILDIMDMTVFDFLMGNMDRHHYETFEKFGNETFIIHLDNGRGFGKYSHDELSILAPLHQCCRIRRSTYLRLQLLAKEEHKLSLLMAESLQHDKVAPVLYQLHLEALDRRLRIVLQAVRDCVEKDGLSSVVEDDLATEHRASTER
modifications: V5 tag
kinase activity of FAM20C mutant isoform: diminished kinase activity

B4: DN473-474GG: FAM20C:V5 with a mutation in a motif predicted to bind metal ion cofactors (protein, UniProt Q5MJS3 88-579, looked up, variant D473G N474G)
Extracellular …: DFSSDPASNLTSHSLEKLPSAAEPVDHAPRGQEPRSPPPRDPAHRPLLRDPGPRPRVPPPGPSGDGSLLAKLFEHPLYQGAVPPLTEDDVLFNVNSDIRFNPKAAENPDWPHEGAEGAEFLPTGEAAVNLYPNWLKFHIGINRYELYSRHNPAIDALLRDLGSQKITSVAMKSGGTQLKLIMTFQNYGQALFKPMKQTREQETPPDFFYFSDYERHNAEIAAFHLDRILDFRRVPPVAGRMINMTKEIRDVTRDKKLWRTFFVSPANNICFYGECSYYCSTEHALCGRPDQIEGSLAAFLPDLSLAKRKTWRNPWRRSYHKRKKAEWEVDPDYCEEVKQTPPYDSGHRILDIMDMTVFDFLMGNMDRHHYETFEKFGNETFIIHLGGGRGFGKYSHDELSILAPLHQCCRIRRSTYLRLQLLAKEEHKLSLLMAESLQHDKVAPVLYQLHLEALDRRLRIVLQAVRDCVEKDGLSSVVEDDLATEHRASTER
modifications: V5 tag
kinase activity of FAM20C mutant isoform: abolished catalytic activity

B5: G374R: recombinant mouse FAM20C:V5 carrying Raine syndrome patient mutation G374R (protein, UniProt Q5MJS3 88-579, looked up, variant G374R)
Extracellular …: DFSSDPASNLTSHSLEKLPSAAEPVDHAPRGQEPRSPPPRDPAHRPLLRDPGPRPRVPPPGPSGDGSLLAKLFEHPLYQGAVPPLTEDDVLFNVNSDIRFNPKAAENPDWPHEGAEGAEFLPTGEAAVNLYPNWLKFHIGINRYELYSRHNPAIDALLRDLGSQKITSVAMKSGGTQLKLIMTFQNYGQALFKPMKQTREQETPPDFFYFSDYERHNAEIAAFHLDRILDFRRVPPVAGRMINMTKEIRDVTRDKKLWRTFFVSPANNICFYGECSYYCSTEHALCRRPDQIEGSLAAFLPDLSLAKRKTWRNPWRRSYHKRKKAEWEVDPDYCEEVKQTPPYDSGHRILDIMDMTVFDFLMGNMDRHHYETFEKFGNETFIIHLDNGRGFGKYSHDELSILAPLHQCCRIRRSTYLRLQLLAKEEHKLSLLMAESLQHDKVAPVLYQLHLEALDRRLRIVLQAVRDCVEKDGLSSVVEDDLATEHRASTER
modifications: V5 tag
kinase activity of FAM20C mutant isoform: no detectable kinase activity

B6: G374E: recombinant mouse FAM20C:V5 carrying Raine syndrome patient mutation G374E (protein, UniProt Q5MJS3 88-579, looked up, variant G374E)
Extracellular …: DFSSDPASNLTSHSLEKLPSAAEPVDHAPRGQEPRSPPPRDPAHRPLLRDPGPRPRVPPPGPSGDGSLLAKLFEHPLYQGAVPPLTEDDVLFNVNSDIRFNPKAAENPDWPHEGAEGAEFLPTGEAAVNLYPNWLKFHIGINRYELYSRHNPAIDALLRDLGSQKITSVAMKSGGTQLKLIMTFQNYGQALFKPMKQTREQETPPDFFYFSDYERHNAEIAAFHLDRILDFRRVPPVAGRMINMTKEIRDVTRDKKLWRTFFVSPANNICFYGECSYYCSTEHALCERPDQIEGSLAAFLPDLSLAKRKTWRNPWRRSYHKRKKAEWEVDPDYCEEVKQTPPYDSGHRILDIMDMTVFDFLMGNMDRHHYETFEKFGNETFIIHLDNGRGFGKYSHDELSILAPLHQCCRIRRSTYLRLQLLAKEEHKLSLLMAESLQHDKVAPVLYQLHLEALDRRLRIVLQAVRDCVEKDGLSSVVEDDLATEHRASTER
modifications: V5 tag
kinase activity of FAM20C mutant isoform: no detectable kinase activity
